Usually Km stands for the concentration of substrate that gives half-maximal velocity. Usually kcat stands for the maximal rate divided by the concentration of active sites.

The data set has as its system C[N+](C)(C)CCP(=O)([O-])O. Briefly: O2 consumption, Clark-type electrode, initial rates in first minute. The settings on record: apparent; co-substrates 2-oxoglutarate and O2, Fe(II); two-turnover enzyme, value assumed to pertain to the desaturation to TMAVP. It counts as biochemical, Streptomyces lavendulae.

Regarding DfmD (Streptomyces lavendulae), the Michaelis constant (Km) amounted to 160 µM and the turnover number (kcat) came to 0.04 s⁻¹.

For the origin of these results see PMC9296572, “An Unusual Oxidative Rearrangement Catalyzed by a Divergent Member of the 2‐Oxoglutarate‐Dependent Dioxygenase Superfamily during Biosynthesis of Dehydrofosmidomycin” (Angewandte Chemie (International Ed. in English), 2022).
